Molecular target: T1, Quiescin-sulfhydryl oxidase (QSOX), recombinant human (human, UniProt O00391 30-709)
T1 construct: also called Human Qsox; recombinant QSOX
T1 sequence (looked up): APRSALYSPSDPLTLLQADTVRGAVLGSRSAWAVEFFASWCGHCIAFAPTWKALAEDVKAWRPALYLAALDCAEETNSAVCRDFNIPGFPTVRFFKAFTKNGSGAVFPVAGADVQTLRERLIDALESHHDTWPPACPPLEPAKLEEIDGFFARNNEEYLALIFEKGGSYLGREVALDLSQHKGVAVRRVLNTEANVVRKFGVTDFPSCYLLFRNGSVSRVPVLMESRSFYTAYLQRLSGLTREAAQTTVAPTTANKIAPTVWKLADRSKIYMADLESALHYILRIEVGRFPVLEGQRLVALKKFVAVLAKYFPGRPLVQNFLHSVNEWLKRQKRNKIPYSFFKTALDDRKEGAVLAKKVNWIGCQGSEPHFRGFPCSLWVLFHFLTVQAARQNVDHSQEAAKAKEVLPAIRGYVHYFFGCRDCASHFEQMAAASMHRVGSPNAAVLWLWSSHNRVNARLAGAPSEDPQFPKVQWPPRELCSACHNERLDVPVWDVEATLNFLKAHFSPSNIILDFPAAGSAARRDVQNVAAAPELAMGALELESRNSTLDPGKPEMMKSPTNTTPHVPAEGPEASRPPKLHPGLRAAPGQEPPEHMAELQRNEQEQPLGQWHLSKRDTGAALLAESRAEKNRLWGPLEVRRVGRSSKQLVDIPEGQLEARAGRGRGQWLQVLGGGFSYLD
Test: SPR; Biacore 3000; […]; 30 ul/min in PBS, 0.05% Tween 20, 3 mM EDTA at 25°C; 1:1 Langmuir model; […]
Details: both partners purified

| Binder | Kd | koff | kon |
| --- | --- | --- | --- |
| recombinant full-length human PrP, HuPrP(23-231) (natural protein) not shown | 1.7 nM | 2e-05 s⁻¹ | 11800 M⁻¹ s⁻¹ |
| recombinant full-length mouse PrP, MoPrP(23-230) (natural protein, also called full-length moPrP (PrP23-231, in the abstract)) not shown | 2 nM | 6.81e-05 s⁻¹ | 33400 M⁻¹ s⁻¹ |

— PMC5270677, “Quiescin-sulfhydryl oxidase inhibits prion formation in vitro” (Aging (Albany NY), 2016)
